# Test results: PMC9970984
# Target: RNA polymerase II (RNAP II), endogenous
# Assay: Co-IP (IP: myc, Western blot for RNA Pol II, band intensity printed below lanes)
# Conditions: HCT116 cells transfected with myc-KAT8 WT or myc-KAT8 2KR plasmid; parent: 1.0
substance,measurement,value
"myc-KAT8 (lysine acetyltransferase 8), wild type (from UniProt Q9H7Z6) K168R; K175R",ratio to parent,3.5
